Laboratory results reported in patent US20260158070A1 (UNIVERSITY OF MARYLAND BALTIMORE, published 2026).

Tests used:
[1] = biological target: T1, wild-type K-Ras 4B (in RASless MEFs) (Homo sapiens (Human), UniProt P01116-2 1-185); test: flow cytometry, surface staining of RASless MEFs, 10 µg/ml
T1 construct: Expressed by lentiviral transduction in RASless mouse embryonic fibroblasts; stained on live cells by flow cytometry, in lysates by western blot; also called MEF-K-Ras-4B; 4B splice variant of K-Ras

[2] = biological target: T2, wild-type K-Ras 4A (in RASless MEFs) (Homo sapiens (Human), UniProt P01116 1-186); test: as above
T2 construct: Expressed by lentiviral transduction in RASless mouse embryonic fibroblasts; stained on live cells by flow cytometry, in lysates by western blot; also called MEF-K-Ras-4A

binding result [1]: binds
binding result [2]: binds
B1: Human Anti-K-Ras Antibody 1 (antibody, human IgG1, lambda, N297G, V domains shown)
VH: EVQLVQSGGGVVQPGRSLRLSCAASGFTSRHPGMHWVRQAPGKGLEWVAVISHDGSKKYYADSVKGRFTISRDNSKNTLFVQLSSLRPEDTAVYYCATSLYSSMDLWGQGTTVTVSS
VL: QSVVTQPPSVSAAPGQKVTISCSGSNSNIGKNYVSWFQQVPGTAPKLLIFEDNQRPSGIPDRFSASKSGTSASLAISGLQSEDEADYYCAAWDDKFGVHWVFGGGTKLTVLG
notes: also called human K-Ras antibody 1; Human K-RAS Antibody 1
